Experiments:
[1] = biological target: Human wild type Parkin 1-465 (human) (UniProt O60260)
Parkin [W403A] (human) = Parkin [W403A] (human) (UniProt O60260)
Parkin [F146A] (human) = Parkin [F146A] (human) (UniProt O60260)
[2] = biological target: Parkin WT (pSer 65) (human) (UniProt O60260)

EC50 of p-Ub-His for the activation of Parkin, MALDI-TOF auto-ubiquitylation assay (500 nM Parkin, 0.05-5 μM p-Ub-His, 30 min) [1]: 2000 nM
EC50 of p-Ub-His for the activation of Parkin, MALDI-TOF discharge assay (500 nM Parkin, 0.05-5 μM p-Ub-His, 30 min) [1]: 1400 nM
EC50 of p-Ub-His for the activation of Parkin, MALDI-TOF auto-ubiquitylation assay (500 nM Parkin, 0.05-5 μM p-Ub-His, 30 min) (Parkin [W403A] (human)): 200 nM
EC50 of p-Ub-His for the activation of Parkin, MALDI-TOF discharge assay (500 nM Parkin, 0.05-5 μM p-Ub-His, 30 min) (Parkin [W403A] (human)): 500 nM
EC50 of p-Ub-His for the activation of Parkin, MALDI-TOF auto-ubiquitylation assay (500 nM Parkin, 0.05-5 μM p-Ub-His, 30 min) (Parkin [F146A] (human)): 400 nM
EC50 of p-Ub-His for the activation of Parkin, MALDI-TOF discharge assay (500 nM Parkin, 0.05-5 μM p-Ub-His, 30 min) (Parkin [F146A] (human)): 600 nM
Ub-K formation %, MALDI-TOF discharge assay of p-Parkin without or with p-Ub-His (100, 500, 2500 nM) (% Ub-K formation) [2]: 78
residual Ub % after 10 min, MALDI-TOF auto-ubiquitylation assay of p-Parkin without or with p-Ub-His (100, 500, 2500 nM) (% residual Ub) [2]: 31.5
Substance: p-Ubiquitin-His (pSer65-ubiquitin-6His) (natural protein)

From PMC10921019
